Assay results published in the DeepSol protein solubility set.

test: soluble on expression in E. coli; label from the status in PepcDB or PDB records

Row | Sequence | soluble on expression in E. coli
1 | MGSDKIHHHHHHVVTPEDSPRYPYGNCLYVEDDIPAVLDLGAGGRAFQEIPCEKVQLALISHSHFDHLHGDSFFPRAGLYAGKEESKTYSDENEYLKFHGYELWAEMMPGIKRVAFSEVKPLPDDVPVKPGFRYIPLAGIFKDMERFQLGKTEITAIHLPGHTTGHYGFWIEKEGILFSGDMDLVVAGPWYSSNSADIGQLVSSVQRIREINPGLIVPSHRRLIFDKIEKRLDQYIGVVFKRQERILDLLKEAHTIDELLEYQMVFHGRRDIYLLFWEKMTLRNHIRFLLWEGMVEEVEKGRYKRC | not soluble
2 | MSLDLREYSTDHQKIKRIEFNCKSKNNTLDGLLTPEEIVAEAKRQGHSAVGISDYNSIFSFPEFYYAAKANNIKPIYGAGFAMLEDTNGAFLTEFQNQDLITGRYVVFDIETTSLSAYHGEIIEFAATIIENKAVVDKVDIFIKSKEKLSHFTTRLTSITNEMLDQKGIELKEALQKIYDVMNNNVAVAHNANFDYNFLIEKFDQNNMQAPKCTFIDSLVVSRILFEHRDKHNLNEFCRNMSVNYDTEKAHRALYDTEVLADAWIEATLKMKDIKQISNFQELSEYKSDALFSKYFSLYINTVVKNQAGLKELFQLVSIANTKTFYGAPKIFWSTLKSFKNILVGSNGVQGELFDIMMLSSRQRVEKYIQKLDYIEIPHPDLFDSYLDRNQLTKDQLLESLQILISLAKKHNKLIISTAEPRYRHKGDREIFKVLTSFPIRDKRHFLWNYKAVKAGNYSVPNFYFLTTDEMLDAFSFLKDKSLIEDIVVNNAHKLNNLIDENIEVIKTDLYPPSIKNSSELLKDLVYKNAKKKYGEVLPKLVQDRIDKELIPIINYKFDVVYWISHILVKKANDDGYVVGSRGSVGSSLIANLINITEVNPLEPHYICDNCKHFEVVNNDKITSGYDLDDKNCPNCDSIMDKDGHSIPFETFLGFKADKVPDIDLNFSGEYQIAIHNYTRELFGEDKTFRAGTVSSIQYRKAFGFIKKYIEDTNTFYSNGFIDYLAEKCIDVKVTTGKHAGGIVVLPENLDIEEFTPVNYASDGLEDKEWKTTHFKYDFLKENLLKLDLLGHSDPTQIRFLEQATGLLSKNIPKKDKNLLKLFSSTEPMEIDPNDINGETTGAIALPEFGTKFTREIIKTSKPHLFADLISISGLSHGQNVWKNNAEDLILNENKTLNEIVCCRDDIMNYLIKKGVDASLSFKVTESVRKGKGVDSEDIKILSTYNIPDWFFDSMQKIKYMFPRAHAVAYVIMAWRMGYYKLYYPLEFYASFFSVKCSKFDLSAMIDFSKDGYWKIKNKIEEIEKLIRTNNKKDNKKEEDILESLNVALEMYSRGFTIQNIDIEKSDAYNWIIDKDSKSLIPPFSALDGIEAGAIKIINARKERPFKTVLDFAKRSGVSSTIVEKLKELNVFKDLPESEQLSLFGEGHHHHHH | soluble
3 | GPGSMGQHSAKEFRGSRRGESNSGVFPLGPGHAHVGMGSTKKPLGIHTSAVQNNVLRQRNQHRRVMHEEGGSHPRGQEADGSHGEDIAEEKFPVVIRYAAHDVRSLLSSNEKVYVAVESLNWSKLPMTASEDSFYAIVELPQGPQRFRFVVGETEVVDTAQPIEDIAEGTPLLEPRGDVGHKGETRANVIHVNKALLLTKEDEEVPDDGSGWGQEEIIHKEDRKHPPIMPVHLRYTPVNTPLTAARCALDGFMRTTDEDTVSPENLPIPLSVTVNHVYFQRREDHCVTAMTTRFCNKYSTMVYYSKAEPTASLQ | not soluble
4 | MADNSDANGVPYYFLINMGGGFVEGEQYQVTIDVNKDAHALVTTQTPTYVYKCEKGQLTQQNTSITLEENSYLEYMADEVIPYLKSRYFQTSRIDMDKSAHLIYSDGVTAGWSHEDLPFQYHYFRNLTQIYQDNELVYSDQTLLEPEKQDMFKLGYFEGWRNYNSLVMVSPNIDEAFVKALQKHLEGLNLESDFAISSLDISGLVLRILGKTAEDNRRIIYSCADYFRQEIHGLTPLNLRKNDMRRLEHHHHHH | not soluble
5 | MIAVQRAVESRSIPPKAIVPVYVATSRMIQNNYSQPYGAERSNKVHYNRVDVGIPQKHVKGVVETNAYKPTHDKYFAAVALQKYDNKEQFKQQLNADLEKKTPGKREIFLFIHGYNNNFADGTFRTAQFTYDYSLNVVTVHYSWPSAGSVPLYIYDRDSANFARDGLIELLTLISETKADQISVIAHSMGNFVIMEAFRTLALQGKYKPIQRITSFLMAAPDIDIDVFERQLNDIKKLPQPTAILVSRADKALAVSGRLTGGHHRVGDGSDIEMLRKNGIAVLDFSNVDGGAHNVFASSPTLMALAREGSLASTIMQGTELSPSQALLADSSSVLEKTTHLILYTPLRLLSPLTRQ | not soluble
6 | KIRDELRAERTFIDQALDSLADIFYVIDSAGTVQRCNEQFATLAGYADEKISDLDALSLFPEEEREGVSEAIEEALTTGQSTIEAEFRTAAGKRVPHEFTADRLTDQDGDLIGLVGTGRDIS | not soluble
7 | MGSDKIHHHHHHDNAGRVVEITSAPERVVSLSPAATRFLVFLGLEDKIVGVTDYDSYEAEKVGAMVPVNIEKVVSLNPDLVLMFGGFQLPEVPKLEKAGLKVLVVNPNSLNDIIRDVVLLGTIFDRRDLALEKSEKLREKMLEIGKKTYNVPPSKRPKVLYLISSPGPDVKEIWTCGMGSYLNEIISLAGGVNIASGIAGPNGWPQLSIEYVVSQNPDVIIVGVYIPGTENEEIKKILNFEPFKEINAVKNKRVFAVDGNVASQPSPDVFELLDLFYEFFYGGKGE | not soluble
8 | MLDTDTITFVNCMHEYICEMDSYPKMNTEIINFESDALRDNYLGDEFRRQILVYTPDSMTDSYPLMIELAGTNWKPRLHNKFANIVEKLFSQGLKAVIANPNFSTKYNINQYINSPAVGNYEDFIITEIVPYLRERYRTGKTALFGKSSGGFGSYTLAVRHPEVINGFADHFGDSCFFYLYADDFAYTYNMLQKYKKSELIEHLLSKRPTDEEMRALNVFGSSAFYSPDLNDPSGFDLPFDENTGEIKENVWSRWKQLDPVKNVKQNLDALKKLDAVYLDVGDSDEYRLYIGSRSLHNKLLEGGIEHHYEEFHGGHFGNSERYLVSLPYLYDALRVKE | not soluble
9 | MSCTTDKLIQKYDALVRKTTEHKFAKELCAGTLKDRSLYIYLSQDLQFFETSLRLICKTTSLAPTTHALITLAKKIGFFSNDENSYFHDCLELLAPSLTKEERDNFDNKAIPGVDAYINFLDELRKDASITWPSLVTSLWVAEELYWRWARDTPRAPGLHWKYQKWIDLHDGEHFQTWCEFLKAEVDKFPVEEVESIFVKVSQFEFEFFESCYNA | not soluble
10 | MTKVSIIVPVYNTKNYVPRLLTSIEKQTYTNWELILVDDHSNDGTYELLLEFKDRYPNKVEVLKTPKPRSGPMIGKNMGIEVSSGKFLAFVDSDDWWSETFLKDTVSNIKSFGGVSTEYYDVFEDSDKKVHVKASKHGVVSWEDVLKLKARFGNGNSLLRRKIVENYGIRFPEHLWYSEDIYFYTQYLSVIDRIYVVPSPDFYHLVRGASMVRSDKIKQESKIEQTIRVYEEVCTRIQEISKVSDEVCKLLKSYQMPYSIMTYITSVSDSLGRAEARKLFWKYLDYLKGYRLTRSHQSYLTLLWILDLFIPIRGILRRLIGLEHHHHHH | soluble
11 | MFLPKFNPIRSFSPILRAKTLLRYQNRMYLSTEIRKAIEDAIESAPVVLFMKGTPEFPKCGFSRATIGLLGNQGVDPAKFAAYNVLEDPELREGIKEFSEWPTIPQLYVNKEFIGGCDVITSMARSGELADLLEEAQALVPEEEEETKDR | soluble
12 | MSLRDYRYSDAHVHYVDFFQESEGMPRLLEAMDKGRVDHVMLSGVAVAKKWHKDEPKRPRYYAGDDAGAYWYSATDVIVAAAVKSLPAEQRRRVHPFLTGFNPTDKNADAHIRRMLELDPGLWQGIGEIFTRHDDLTALTYGDVPRANNEALARVYHLAAEFDLPVLLHANVTSKRERNPLYLAEIEEPLRNHPHVRFIWAHAGTSMEIHRHQKKLDFLLPTLRRLLQRYPNLYIDLSWSVLRPYLLDEQGKPDPQWLALVERFPQRFMLGSDVVGQFDSLPELMASFDPFLDALPEQVARQVARDNFLAVLPREGHHHHHH | soluble
13 | MHAYLHCLSHSPLVGYVDPAQEVLDEVNGVIASARERIAAFSPELVVLFAPDHYNGFFYDVMPPFCLGVGATAIGDFGSAAGELPVPVELAEACAHAVMKSGIDLAVSYCMQVDHGFAQPLEFLLGGLDKVPVLPVFINGVATPLPGFQRTRMLGEAIGRFTSTLNKRVLFLGSGGLSHQPPVPELAKADAHMRDRLLGSGKDLPASERELRQQRVISAAEKFVEDQRTLHPLNPIWDNQFMTLLEQGRIQELDAVSNEELSAIAGKSTHEIKTWVAAFAAISAFGNWRSEGRYYRPIPEWIAGFGSLSARTEN | not soluble
14 | MRGSHHHHHHGSDLGKKLLEAARAGQDDEVRILMANGADVNANDWFGITPLHLVVNNGHLEIIEVLLKYAADVNASDKSGWTPLHLAAYRGHLEIVEVLLKYGADVNAMDYQGYTPLHLAAEDGHLEIVEVLLKYGADVNAQDKFGKTAFDISIDNGNEDLAEILQKLN | soluble
15 | MDLHSGLPYWVVKNSLLDYFHPLEDDFSTDIVVVGSGITGALMVHELCSAGLRCCMVDKRSIATGSSIASTALLQYEIDVPLCEMAEIIGEDNAVSAYRASLASIADIEKVLKETGVDADFEKRPSLFYASIPKDIELIEKEYVIRKKHNLPVRLLGKEEIKKLYNIEVPGNALLNRVSAQMDAYKATTGLLLYHMKKDGLEIFTHTGVTECVEMPEGYIIETDRGHKIECKYVIIASGFEAGKFLSREIMDLTSTYALVSHPVDSKDLWPEQCLIWETAEPYLYIRTTRGNRIIVGGEDEKFSDPERRDALLRKKTLVLEKKFRRLFPSIPFKTEMAWCGTFSTTKDGLPFIGNCPDKDRMFFDLGYGGNGITFSMIGAQIICKKLQGIDDERGRIFGYERIEKYWLEHHHHHH | not soluble
16 | MAHHHHHHMNVINRMLSRGHVAASASLPIKERPFPVNYGLSTFKWHLDSRKPSKAILLHDLFGSSAYWQMLLHESLGRLPCSGLTPLVPLELFAVDFRGHNHSKSLPCPEEGRAFTMACAADIMLLQQQVLRADAKLVGIGFGALVACQAALHSPESGIDSLVLIVNGPSDLLACEPARYSLPSFISDIPKEISSVADLEHHLHKRVPNEAERALILSTVEQREGTVGFKFNETLFQFRGPLCGFSDVGPENIFTKPVTVIQCGSEEFSGEAKSDFMKHFPKAKFVLFEGDRSGGISGLSAQGPAVTRTLLEAMELLGETTGGEE | not soluble
17 | MSFEKLQKELHEAIEGVNRYNPENVADLAACVQAMVNENKYDKDIVLTILKLYQLNPEKYDEAVVRQVLLKTLMVLPSSDFALAKCLIDTNRLGSQELRRIFDLGAVLESCNFAVFWKLVKGAYKPTTNPNEPFKVPGEVPKMIKPMVGFEDAVKHYACRVISVTFQKIEKKMLSRLLGGASDKEVTALAQSFGWEAKENGDVFFVANHEGTIKTRNIDEKIQFPHVADLLTSIQPPLTL | not soluble
18 | MTTNIAANSGGIVFHFLGTGGAQQVPAFGCECEVCQQAQRNESKRRRACCAAITTKDRIILIDAGLPELSPYLLPYPQRHILLTHYHMDHVQGLFPLRWGYGEPIPVFGPPDEAGCDDLFKHPGILHFQKPLMAFQPFELDGIRITPVPLIHSKLTYGYLIQTPTHTLAYLTDTIGLPPETTQFLASHTLDYAIVDCSHPPQTMLPRNHNDITRALEIFTQLNPKQLYLTHISHELDRWLQTQTLLPENVHAAYDGLVLGLLEHHHHHH | not soluble
